The values that follow come from PMC3188359 (Biochemistry, 2000).

Like-named read-outs stand apart in the source and are kept apart here.

Data set [1] deals with Bacillus stearothermophilus DnaB (replicative helicase) (Bacillus stearothermophilus NCA 1503) (UniProt Q9X4C9). The data set can be described thus: SEC.
Data set [2] deals with T1, Bacillus stearothermophilus DnaB (replicative helicase) (Bacillus stearothermophilus NCA 1503, UniProt Q9X4C9 1-454).
T1 sequence (looked up): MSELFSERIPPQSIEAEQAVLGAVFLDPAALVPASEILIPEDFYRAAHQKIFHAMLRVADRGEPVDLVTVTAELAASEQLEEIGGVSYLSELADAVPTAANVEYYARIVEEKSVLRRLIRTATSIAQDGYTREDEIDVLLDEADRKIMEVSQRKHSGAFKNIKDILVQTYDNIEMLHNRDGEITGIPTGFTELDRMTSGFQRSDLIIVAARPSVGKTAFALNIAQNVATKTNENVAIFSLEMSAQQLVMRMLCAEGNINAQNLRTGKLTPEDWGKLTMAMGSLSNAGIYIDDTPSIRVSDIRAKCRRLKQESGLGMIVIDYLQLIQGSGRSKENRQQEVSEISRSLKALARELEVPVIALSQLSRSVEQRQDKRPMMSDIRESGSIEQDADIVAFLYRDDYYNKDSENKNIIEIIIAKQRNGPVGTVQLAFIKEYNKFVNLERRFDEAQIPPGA
The data set is described as follows: SEC + AUC.

Data set [3] concerns the molecule itself. The data set can be described thus: SEC. (SEC sorts molecules by how far they enter the pores of the column.)
Data set [4] deals with the molecule itself. The data set is described as follows: SEC. The source holds these as a separate data set.
Data set [5] concerns the molecule itself. The data set is described as follows: SEC. This is another data set of the same source.

With “P16, C-terminal 16 kDa fragment of B. stearothermophilus DnaG (from UniProt Q9X4D0 451-597) (domain or fragment)”, in data set [1], the stoichiometry N (P16 molecules per DnaB hexamer) worked out at 3.

B1: Bacillus stearothermophilus DnaG (primase) (enzyme, Bacillus stearothermophilus NCA 1503, UniProt Q9X4D0 1-597, looked up)
chain: MGHRIPEETIEAIRRGVDIVDVIGEYVQLKRQGRNYFGLCPFHGEKTPSFSVSPEKQIFHCFGCGAGGNAFTFLMDIEGIPFVEAAKRLAAKAGVDLSVYELDVRGRDDGQTDEAKAMTEAHALLKRFYHHLLVHTKEGQAALDYLQARGWTKETIDRFEIGYAPDAPDAAAKLLESHSFSLPVMEKAGLLTKKEDGRYVGRFRNRIMFPIHDHRGETVGFSGRLLGEGHPKYVNSPETPVFRKGAILYHFHAARVPIRKRQEALLVEGFADVISAAQAGIDYAIATMGTSLTEEQARILRPCDTITICYDGDRAGIEAAWAAAEQLSALGCRVKVASLPNGLDPDEYIRVYGGERFAGEAGCRRPLVAFKMAYLRRGKNLQHEGERLRYIDEALREIGKLSSPVEQDYYLRQLAEEFSLSLSALHEQLSRSQRERTKPREAPDGETARPMLAKKLLPAFQNAERLLLAHMMRSRDVALVVQERIGGRFNIEEHRALAAYIYAFYEEGHEADPGALISRIPGELQPLASDVSLLLIADDVSEQELEDYIRHVLNRPKWLMLKVKEQEKTEAERRKDFLTAARIAKEMIEMKKMLSSS
A word on the stoichiometry N: it is a count of units in the complex or per binding partner. B1: the “stoichiometry N” value in data set [2] is 3 DnaG molecules per DnaB hexamer.

B2: P33, C-terminal 33 kDa fragment of B. stearothermophilus DnaB (domain or fragment, Bacillus stearothermophilus NCA 1503, UniProt Q9X4C9 155-454, looked up)
chain: HSGAFKNIKDILVQTYDNIEMLHNRDGEITGIPTGFTELDRMTSGFQRSDLIIVAARPSVGKTAFALNIAQNVATKTNENVAIFSLEMSAQQLVMRMLCAEGNINAQNLRTGKLTPEDWGKLTMAMGSLSNAGIYIDDTPSIRVSDIRAKCRRLKQESGLGMIVIDYLQLIQGSGRSKENRQQEVSEISRSLKALARELEVPVIALSQLSRSVEQRQDKRPMMSDIRESGSIEQDADIVAFLYRDDYYNKDSENKNIIEIIIAKQRNGPVGTVQLAFIKEYNKFVNLERRFDEAQIPPGA
In the case of B2, the results for the “stoichiometry N” value in the data set “SEC [3]” and in “SEC [4]” were 6 and 2, respectively.

B3: P17, N-terminal 17 kDa fragment of B. stearothermophilus DnaB (domain or fragment, Bacillus stearothermophilus NCA 1503, UniProt Q9X4C9 1-154, looked up)
chain: MSELFSERIPPQSIEAEQAVLGAVFLDPAALVPASEILIPEDFYRAAHQKIFHAMLRVADRGEPVDLVTVTAELAASEQLEEIGGVSYLSELADAVPTAANVEYYARIVEEKSVLRRLIRTATSIAQDGYTREDEIDVLLDEADRKIMEVSQRK
For the molecule B3, the “stoichiometry N” value in “SEC [5]” came to 2.
